Test results: the supplement of paper PMC5998384

Legend:
HeLa Kyoto [1] = assay: melting temperature (median over replicates), in situ; higher = more thermally stable
HeLa Kyoto [2] = assay: solubility change mitosis vs G1/S (difference of NP-40 vs SDS log2 ratios) (log2 ratio difference); higher = more soluble in mitosis
HeLa Kyoto [3] = assay: solubility in G1/S (NP-40 vs SDS abundance) (log2 ratio); higher = more soluble; conditions: cell cycle stage: G1/S
HeLa Kyoto [4] = assay: thermal stability score vs G1/S (z-score of summed log2 fold changes over temperatures); higher = more thermally stable than in G1/S
[5] = cell cycle stage: early G1 (4.5 h after nocodazole release)
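Throughout, for melting temperature (median over replicates), in situ: HeLa Kyoto cells synchronized by double thymidine or nocodazole block, proteins quantified by TMT10plex mass spectrometry, three independent biological replicates.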
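Throughout, for solubility change mitosis vs G1/S (difference of NP-40 vs SDS log2 ratios): synchronized HeLa Kyoto cells (double thymidine block for G1/S, nocodazole release for mitosis), protein amounts in NP-40 versus SDS lysates quantified by mass spectrometry, three biological replicates.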
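Throughout, for solubility in G1/S (NP-40 vs SDS abundance): HeLa Kyoto cells arrested at G1/S by double thymidine block, proteins quantified by TMT10plex mass spectrometry in mild NP-40 versus SDS extracts, three biological replicates.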
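Throughout, for thermal stability score vs G1/S (z-score of summed log2 fold changes over temperatures): synchronized HeLa Kyoto cells, proteins quantified by TMT10plex mass spectrometry, three biological replicates, mitosis taken 0.5 h after nocodazole release, G1/S directly after double thymidine block.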

Sequence	melting temperature (HeLa Kyoto [1]; cell cycle stage: mitosis)	solubility change mitosis (log2) (HeLa Kyoto [2])	solubility in G1/S (log2) (HeLa Kyoto [3])	thermal stability score (HeLa Kyoto [4]; [5])	thermal stability score (HeLa Kyoto [4]; cell cycle stage: mitosis)	melting temperature (HeLa Kyoto [1]; cell cycle stage: G1/S)
MAAAGPSTRASSAAAAAALSRRGRRGRCDETAAAKTGAPGPASGPSLLVLSPPLLQPPLPPRPEESGCAGCLEPPGEAAALPCGHSLCRGCAQRAADAAGPGCPRCRARGPGWARRRARDDGQADSEVLGECARRSQPERCRPRRDGGAAAAGPRPEQEPRAAPAEPDFIFRAPIKLSKPGELREEYESLRKLREEKLQEEKPSEDQIHKLLPEDTETGKRKMDEQKKRDEPLVLKTNLERCPARLSDSENEEPSRGQMTQTHRSAFVSKNNSYSLAFLAGKLNSKVERSQSCSDTAQERAKSRVRAVPGNKAKVTTMTPASNPIIGVLLSTQNNRCVSAPDLTIEKRLPFSSLSSLASLHKPERSVSPESNDSISEELNHFKPIVCSPCTPPKRLPDGRVLSPLIIKSTPRNLNRSLQKQTSYEASPRILKKWEQIFQERQIKKTLSKATLTSLAPEMGEELLGSEGIHSSKEKPLVAVNTRLSGGQVLSEYTGPTSADLDHFPSVSQTKAEQDSDNKSSTEIPLETCCSSELKGGGSGTSLEREQFEGLGSTPDAKLDKTCISRAMKITTVNSVLPQNSVLGGVLKTKQQLKTLNHFDLTNGVLVESLSEEPLPSLRRGRKRHCKTKHLEQNGSLKKLRQTSGEVGLAPTDPVLREMEQKLQQEEEDRQLALQLQRMFDNERRTVSRRKGSVDQYLLRSSNMAGAK [RNF169]	51.8 °C	0.36	-0.158	0.359	0.101	–
MAAAGRLPSSWALFSPLLAGLALLGVGPVPARALHNVTAELFGAEAWGTLAAFGDLNSDKQTDLFVLRERNDLIVFLADQNAPYFKPKVKVSFKNHSALITSVVPGDYDGDSQMDVLLTYLPKNYAKSELGAVIFWGQNQTLDPNNMTILNRTFQDEPLIMDFNGDLIPDIFGITNESNQPQILLGGNLSWHPALTTTSKMRIPHSHAFIDLTEDFTADLFLTTLNATTSTFQFEIWENLDGNFSVSTILEKPQNMMVVGQSAFADFDGDGHMDHLLPGCEDKNCQKSTIYLVRSGMKQWVPVLQDFSNKGTLWGFVPFVDEQQPTEIPIPITLHIGDYNMDGYPDALVILKNTSGSNQQAFLLENVPCNNASCEEARRMFKVYWELTDLNQIKDAMVATFFDIYEDGILDIVVLSKGYTKNDFAIHTLKNNFEADAYFVKVIVLSGLCSNDCPRKITPFGVNQPGPYIMYTTVDANGYLKNGSAGQLSQSAHLALQLPYNVLGLGRSANFLDHLYVGIPRPSGEKSIRKQEWTAIIPNSQLIVIPYPHNVPRSWSAKLYLTPSNIVLLTAIALIGVCVFILAIIGILHWQEKKADDREKRQEAHRFHFDAM [ITFG1]	57.5 °C	-0.259	0.327	0.328	0.713	55.9 °C
MAAAGVVSGKIIYEQEGVYIHSSCGKTNDQDGLISGILRVLEKDAEVIVDWRPLDDALDSSSILYARKDSSSVVEWTQAPKERGHRGSEHLNSYEAEWDMVNTVSFKRKPHTNGDAPSHRNGKSKWSFLFSLTDLKSIKQNKEGMGWSYLVFCLKDDVVLPALHFHQGDSKLLIESLEKYVVLCESPQDKRTLLVNCQNKSLSQSFENLLDEPAYGLIQAGLLDRRKLLWAIHHWKKIKKDPYTATMIGFSKVTNYIFDSLRGSDPSTHQRPPSEMADFLSDAIPGLKINQQEEPGFEVITRIDLGERPVVQRREPVSLEEWTKNIDSEGRILNVDNMKQMIFRGGLSHALRKQAWKFLLGYFPWDSTKEERTQLQKQKTDEYFRMKLQWKSISQEQEKRNSRLRDYRSLIEKDVNRTDRTNKFYEGQDNPGLILLHDILMTYCMYDFDLGYVQGMSDLLSPLLYVMENEVDAFWCFASYMDQMHQNFEEQMQGMKTQLIQLSTLLRLLDSGFCSYLESQDSGYLYFCFRWLLIRFKREFSFLDILRLWEVMWTELPCTNFHLLLCCAILESEKQQIMEKHYGFNEILKHINELSMKIDVEDILCKAEAISLQMVKCKELPQAVCEILGLQGSEVTTPDSDVGEDENVVMTPCPTSAFQSNALPTLSASGARNDSPTQIPVSSDVCRLTPA [TBC1D15]	50.2 °C	-0.17	-0.164	-0.47	0.539	49.7 °C
MAAAGWRDGSGQEKYRLVVVGGGGVGKSALTIQFIQSYFVTDYDPTIEDSYTKQCVIDDRAARLDILDTAGQEEFGAMREQYMRTGEGFLLVFSVTDRGSFEEIYKFQRQILRVKDRDEFPMILIGNKADLDHQRQVTQEEGQQLARQLKVTYMEASAKIRMNVDQAFHELVRVIRKFQEQECPPSPEPTRKEKDKKGCHCVIF [RRAS2]	55.3 °C	-0.0849	-0.172	1.24	1.12	55.4 °C
